The source of these data is article PMC3889205 (FEBS letters, 2013).

Holding throughout (experiment): FRET or BRET
(In general: Bioluminescence resonance energy transfer reports proximity on the nanometre scale.)

In assay [1] the target is T1, Cy3-labeled recombinant rat hepatocyte nuclear factor 4α (rat, UniProt P22449 1-474, Cy3 fluorophore label (site not stated)).
T1 sequence (looked up): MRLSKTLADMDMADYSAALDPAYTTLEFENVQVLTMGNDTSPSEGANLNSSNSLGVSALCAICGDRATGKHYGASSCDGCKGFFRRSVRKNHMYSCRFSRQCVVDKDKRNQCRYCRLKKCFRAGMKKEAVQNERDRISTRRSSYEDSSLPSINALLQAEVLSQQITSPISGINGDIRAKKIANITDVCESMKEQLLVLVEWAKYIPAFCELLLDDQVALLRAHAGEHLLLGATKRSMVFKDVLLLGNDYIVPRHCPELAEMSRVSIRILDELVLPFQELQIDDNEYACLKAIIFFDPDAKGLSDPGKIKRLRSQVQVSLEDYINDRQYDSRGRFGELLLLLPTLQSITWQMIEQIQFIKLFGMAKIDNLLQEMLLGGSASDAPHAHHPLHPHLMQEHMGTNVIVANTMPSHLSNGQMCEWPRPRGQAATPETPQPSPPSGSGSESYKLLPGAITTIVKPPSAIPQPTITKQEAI

Assay [2] concerns the target T2, Cy3-labeled β-galactosidase (UniProt P00722 1-1024 = β-galactosidase, Cy3 fluorophore label (site not stated)).
For assay [3], the target named is T1, Cy3-labeled recombinant rat hepatocyte …. The source holds these as a separate data set.
Assay [4] concerns the target T2, Cy3-labeled β-galactosidase. This is another data set of the same source.

Where two headings read alike, the source gives them in different places. Some results are limits rather than exact numbers.

T2 sequence (P00722 whole entry): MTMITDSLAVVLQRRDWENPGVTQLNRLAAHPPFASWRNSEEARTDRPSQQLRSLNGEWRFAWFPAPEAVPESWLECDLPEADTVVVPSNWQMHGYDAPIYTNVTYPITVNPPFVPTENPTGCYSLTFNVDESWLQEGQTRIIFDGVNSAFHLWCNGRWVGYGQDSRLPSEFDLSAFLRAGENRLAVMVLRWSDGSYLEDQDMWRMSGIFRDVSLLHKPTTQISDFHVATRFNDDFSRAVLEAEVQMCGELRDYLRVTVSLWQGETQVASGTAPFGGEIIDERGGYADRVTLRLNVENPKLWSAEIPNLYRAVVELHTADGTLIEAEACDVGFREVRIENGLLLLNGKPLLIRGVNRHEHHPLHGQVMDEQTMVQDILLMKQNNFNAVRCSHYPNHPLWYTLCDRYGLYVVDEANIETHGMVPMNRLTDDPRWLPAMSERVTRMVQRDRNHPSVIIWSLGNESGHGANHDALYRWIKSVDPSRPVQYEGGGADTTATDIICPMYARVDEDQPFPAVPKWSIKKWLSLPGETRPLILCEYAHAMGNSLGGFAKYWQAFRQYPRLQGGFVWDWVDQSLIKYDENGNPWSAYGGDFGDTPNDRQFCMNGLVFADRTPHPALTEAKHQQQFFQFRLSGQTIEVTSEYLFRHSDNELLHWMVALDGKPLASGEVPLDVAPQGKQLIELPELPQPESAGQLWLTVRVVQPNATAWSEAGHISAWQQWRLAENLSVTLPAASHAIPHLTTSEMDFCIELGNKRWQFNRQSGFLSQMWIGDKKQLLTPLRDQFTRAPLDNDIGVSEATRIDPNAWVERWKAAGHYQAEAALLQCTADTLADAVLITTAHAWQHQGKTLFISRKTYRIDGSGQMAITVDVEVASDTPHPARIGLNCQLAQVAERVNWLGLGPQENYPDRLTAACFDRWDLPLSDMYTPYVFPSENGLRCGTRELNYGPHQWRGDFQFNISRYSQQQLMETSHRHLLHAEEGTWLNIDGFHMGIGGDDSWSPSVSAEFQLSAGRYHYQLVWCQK

B1: Cy5-labeled recombinant rat liver-type fatty acid binding protein (natural protein, UniProt P02692 1-127, looked up)
chain: MNFSGKYQVQSQENFEPFMKAMGLPEDLIQKGKDIKGVSEIVHEGKKVKLTITYGSKVIHNEFTLGEECELETMTGEKVKAVVKMEGDNKMVTTFKGIKSVTEFNGDTITNTMTLGDIVYKRVSKRI
modifications: Cy5 fluorophore label (site not stated)
As usually defined, the Kd is a measure of binding affinity in units of concentration. As to B1, the Kd in assay [1] is 300 nM; in assay [2], > 10000 nM; in assay [3] it was 250 nM; in assay [4], > 10000 nM.
